The values that follow come from patent publication US20230050440A1 (Seagen, published 2023).

Sequences and labels used below:
T1: monomeric human TIGIT (Sino Biological 10917-H08H) (human, UniProt Q495A1 22-138, biotinylated in the MSD-SET assay)
T1 construct: Bought protein; also called Human TIGIT monomer; Human TIGIT-His; not shown: His tag
T1 sequence: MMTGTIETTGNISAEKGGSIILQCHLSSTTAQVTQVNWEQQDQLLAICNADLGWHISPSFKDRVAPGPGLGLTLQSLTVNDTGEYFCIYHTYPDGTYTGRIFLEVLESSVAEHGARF

T2: recombinant dimeric human TIGIT-Fc (Acro Biosystems TIT-H5254) (human, UniProt Q495A1 22-141)
T2 construct: Bought protein; also called hTIGIT-Fc; not shown: Fc part of the bought fusion protein
T2 sequence: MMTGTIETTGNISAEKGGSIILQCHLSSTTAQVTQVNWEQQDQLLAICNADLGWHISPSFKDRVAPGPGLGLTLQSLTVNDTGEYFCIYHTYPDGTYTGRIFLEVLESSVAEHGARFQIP

T3: human TIGIT expressed on cells (human, UniProt Q495A1 22-244)
T3 construct: HEK 293 cells stably expressing human TIGIT, primary human T cells or Jurkat effector cells; the cell is named under assay; also called Human TIGIT HEK
T3 sequence: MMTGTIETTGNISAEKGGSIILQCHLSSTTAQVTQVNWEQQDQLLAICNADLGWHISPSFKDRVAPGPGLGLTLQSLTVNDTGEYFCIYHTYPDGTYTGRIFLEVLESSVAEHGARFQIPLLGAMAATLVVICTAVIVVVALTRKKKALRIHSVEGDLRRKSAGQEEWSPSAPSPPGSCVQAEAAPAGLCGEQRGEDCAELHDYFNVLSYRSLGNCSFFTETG

B1: Clone 13D (antibody, V domains shown)
VH: QVQLVQSGAEVKKPGSSVKVSCKASGGTFLSSAISWVRQAPGQGLEWMGSIIPYFGKANYAQKFQGRVTITADESTSTAYMELSSLRSEDTAVYYCARGPSEVKGILGYVWFDPWGQGTLVTVSS
VL: not shown
B2: Clone 13B (antibody, V domains shown)
VH: B1 VH with L30S, S31A, S32W, K104S
VL: not shown
B3: Clone 13A (antibody, V domains shown)
VH: B1 VH with I51L, K57T, K104G, G105A
VL: not shown
B4: Clone 13C (antibody, IgG1, V domains shown)
VH: B1 VH with Y54L
VL: not shown
B5: Clone 25A (antibody, V domains shown)
VH: QVQLVQSGAEVKKPGASVKVSCKASGYTFTSYAISWVRQAPGQGLEWMGWISAYNGNTKYAQKLQGRVTMTTDTSTSTAYMELRSLRSDDTAVYYCARDLSSFWSGDVLGAFDIWGQGTMVTVSS
VL: DIQMTQSPSSLSASVGDRVTITCRASQSISSYLNWYQQKPGKAPKLLIYAASSLQSGVPSRFSGSGSGTDFTLTISSLQPEDFATYYCQQSVPPRTFGGGTKVEIK
B6: Clone 25C (antibody, V domains shown)
VH: B5 VH with A33P, S35G, A53S, K59N, D99G, L100A
VL: B5 VL
B7: Clone 25D (antibody, V domains shown)
VH: B5 VH with A33P, S35G, A53S, K59N, S101K
VL: B5 VL
B8: Clone 25E (antibody, V domains shown)
VH: B5 VH with S35A, K59N, D99S, L100G
VL: B5 VL
B9: Clone 25B (antibody, V domains shown)
VH: B5 VH with A33P, S35G, A53S, K59N
VL: B5 VL
B10: Clone 16C (antibody, V domains shown)
VH: QVQLVQSGAEVKKPGSSVKVSCKASGGTFREYAISWVRQAPGQGLEWMGGIHPIFGTARYAQKFQGRVTITADESTSTAYMELSSLRSEDTAVYYCTRQSTWHKLYGTDVWGQGTTVTVSS
VL: DIQMTQSPSSVSASVGDRVTITCRASQGISSWLAWYQQKPGKAPKLLIYAASSLQSGVPSRFSGSGSGTDFTLTISSLQPEDFATYYCQQGDSLPPTFGGGTKVEIK
B11: Clone 16E (antibody, V domains shown)
VH: B10 VH with R30S, E31D, A33P, H52I, F55V, T57G, R59N, T97A, L105V
VL: B10 VL
B12: Clone 16D (antibody, V domains shown)
VH: B10 VH with R30S, E31D, A33P, H52I, F55V, T57G, R59N, Y106F
VL: B10 VL
B13: Clone 2C (antibody, V domains shown)
VH: EVQLVESGGGLVQPGGSLRLSCAASGFTFTDYYMDWVRQAPGKGLEWVGRTRNKVNSYYTEYAASVKGRFTISRDDSKNSLYLQMNSLKTEDTAVYYCARGQYYYGSDRRGYYYMDVWGQGTTVTVSS
VL: EIVLTQSPGTLSLSPGERATLSCRASQSVSSSYLAWYQQKPGQAPRLLIYGASSRATGIPDRFSGSGSGTDFTLTISRLEPEDFAVYYCQQAVPSPLTFGGGTKVEIK
B14: Clone 14 (antibody, V domains shown)
VH: B1 VH with L30S, S32Y, Y54I, K57T, K104G, G105A
VL: not shown
notes: Fully human IgG produced in yeast
B15: Clone 21 (antibody, V domains shown)
VH: QLQLQESGPGLVKPSETLSLTCTVSGGSISSSSYYWGWIRQPPGKGLEWIGSIYYSGSTYYNPSLKSRVTISVDTSKNQFSLKLSSVTAADTAVYYCARDPLYQDAPFDYWGQGTLVTVSS
VL: EIVLTQSPATLSLSPGERATLSCRASQSVSSYLAWYQQKPGQAPRLLIYDASNRATGIPARFSGSGSGTDFTLTISSLEPEDFAVYYCQQRANFPTFGGGTKVEIK
notes: as for B14
B16: Clone 27 (antibody, V domains shown)
VH: B5 VH with K59N
VL: EIVMTQSPATLSVSPGERATLSCRASQSVSSNLAWYQQKPGQAPRLLIYGASTRATGIPARFSGSGSGTEFTLTISSLQSEDFAVYYCQQHANHITFGGGTKVEIK
notes: as for B14
B17: Clone 18 (antibody, V domains shown)
VH: QVQLVQSGAEVKKPGASVKVSCKASGYTFTSYYMSWVRQAPGQGLEWMGIINPSGGSTSYAQKFQGRVTMTRDTSTSTVYMELSSLRSEDTAVYYCARVRYGYADGMDVWGQGTTVTVSS
VL: B10 VL with V11L, G28S, W32Y, A34N, A50G, G91V, D92Y, S93H, P96F
notes: as for B14
B18: Clone 3 (antibody, V domains shown)
VH: B13 VH with T30S, Y32H, V55A, Y59T, D108S, R109S
VL: EIVLTQSPGTLSLSPGERATLSCRASQSVRSSYLAWYQQKPGQAPRLLIYGASSRATGIPDRFSGSGSGTDFTLTISRLEPEDFAVYYCQQVGPPLTFGGGTKVEIK
notes: as for B14
B19: Clone 22 (antibody, V domains shown)
VH: QVQLQESGPGLVKPSETLSLTCAVSGYSISSGYYWAWIRQPPGKGLEWIGSIYHSGSTYYNPSLKSRVTISVDTSKNQFSLKLSSVTAADTAVYYCARQGYYYGSSGSVDFDLWGRGTLVTVSS
VL: DIQMTQSPSSVSASVGDRVTITCRASQGISSWLAWYQQKPGKAPKLLIYAASNLQSGVPSRFSGSGSGTDFTLTISSLQPEDFATYYCQQANSLPPWTFGGGTKVEIK
notes: as for B14

The Kd is the concentration at which binding is half-saturated.

Changes are numbered by the printed parent chain.
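Wherever FOB (Fold Over Background) is given: bound antibody detected with PE-labelled anti-human IgG, 15 min on ice. FOB equals median fluorescence on TIGIT-positive cells divided by that on target-negative cells.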

T4 sequence (chain, as listed by the source limits assumed): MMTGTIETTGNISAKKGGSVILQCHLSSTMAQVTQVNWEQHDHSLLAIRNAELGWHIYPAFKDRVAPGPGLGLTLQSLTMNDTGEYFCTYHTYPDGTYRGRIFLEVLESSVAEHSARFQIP

The first assay concerns the target T1, monomeric human TIGIT (Sino Biological …). Kind of assay: MSD-SET solution equilibrium titration, biotinylated antigen at 50 pM.
Description: Antibodies (20 nM in PBS) were coated onto standard bind MSD-ECL plates overnight at 4° C. or at room temperature for 30 min. Plates were then blocked with 1% BSA for 30 min with shaking at 700 rpm, followed by three washes with wash buffer (PBSF+0.05% Tween 20). SET samples were applied and incubated on the plates for 150s with shaking at 700 rpm followed by one wash. Antigen captured on a plate was detected with 250 ng/ml sulfotag-labeled streptavidin in PBSF by incubation on the plate for 3 min. The plates were washed three times with wash buffer and then read on the MSD Sector Imager 2400 instrument using 1× Read Buffer T with surfactant. The percent free antigen was plotted as a function of titrated antibody in Prism and fit to a quadratic equation to extract the KD. To improve throughput, liquid handling robots were used throughout MSD-SET experiments, including SET sample preparation.
As to B1, binding was characterised by a dissociation constant (Kd) of 0.005 nM.

Turning to B2, binding was characterised by a dissociation constant (Kd) of 0.0053 nM.

Regarding B3, the Kd is 0.025 nM.

B4 registered a dissociation constant Kd of 0.0086 nM.

In the case of B5, the affinity, expressed as Kd, was 0.018 nM.

The molecule B6 had a Kd of 0.0056 nM.

Molecule B7 had a Kd of 0.027 nM.

On to B8, for which the affinity, expressed as Kd, was 0.013 nM.

Molecule B9 displayed a Kd of 0.022 nM.

As for B10, binding was characterised by a dissociation constant (Kd) of 0.0063 nM.

For B11, binding was characterised by a dissociation constant (Kd) of 0.011 nM.

On to B12, for which binding was put at a Kd of 0.013 nM.

Turning to B13, the equilibrium dissociation constant (Kd) was determined as 0.016 nM.

The next assay shares this target. Kind of assay: BLI (ForteBio), IgG on sensor, monovalent. On the technique in general: BLI is a label-free optical method that tracks binding on a fibre tip over time.
Description: (§1) Briefly, ForteBio affinity measurements were performed by loading IgGs on-line onto AHQ sensors. Sensors were equilibrated off-line in assay buffer for 30 minutes and then monitored on-line for 60 seconds for baseline establishment. Sensors with loaded IgGs were exposed to 100 nM antigen (dimeric Fc-fusion antigen or monomeric antigen) for 3 minutes, and afterwards were transferred to assay buffer for 3 minutes for off-rate measurement. All binding and dissociation kinetics were analyzed using the 1:1 binding model.
The optimized antibodies were also tested for ligand blocking in a CD155 ligand competition assay, and for binding to human TIGIT HEK, cyno TIGIT HEK, mouse TIGIT HEK, and parental HEK cell lines, as described above.
In turn, B1 had a Kd of 0.571 nM.

As to B2, binding was put at a Kd of 0.61 nM.

As for B3, the dissociation constant (Kd) is 0.627 nM.

As for B4, the dissociation constant Kd was 0.563 nM.

In turn, B5 displayed a Kd of 1.1 nM.

The molecule B6 yielded a Kd of 0.697 nM.

With B7, the Kd is 0.846 nM.

Molecule B8 yielded a Kd of 0.851 nM.

With B9, the equilibrium dissociation constant (Kd) stood at 1.16 nM.

In turn, B10 showed a Kd of 0.911 nM.

On to B11, for which binding was characterised by a dissociation constant (Kd) of 0.778 nM.

Molecule B12 showed a Kd of 0.596 nM.

As for B13, the Kd is 0.518 nM.

A further assay has as its target T4, cyno TIGIT-Fc (cynomolgus monkey).
T4 construct: not shown: Fc part
Kind of assay: BLI (ForteBio), IgG on sensor, avid.
Take B5: the dissociation constant (Kd) was determined as 1.64 nM.

Molecule B6 registered a Kd of 1.24 nM.

Molecule B7 came in with a Kd of 1.18 nM.

The molecule B8 gave a Kd of 1.18 nM.

B9 yielded a Kd of 1.4 nM.

Molecule B10 returned a dissociation constant (Kd) of 4.25 nM.

In turn, B11 registered a Kd of 1.36 nM.

B12 displayed a Kd of 1.15 nM.

B13 showed a Kd of 0.984 nM.

The next assay has as its target T2, recombinant dimeric human TIGIT-Fc …. Put plainly: BLI (ForteBio Octet RED384), IgG on AHQ sensor, 100 nM antigen, 1:1 model.
Description: as §1
Regarding B14, the Kd came out at 2.01 nM.

B15: the Kd turned out to be 0.585 nM.

With B16, the Kd is 0.558 nM.

For B17, the equilibrium dissociation constant (Kd) is 2.39 nM.

Consider B18, for which the dissociation constant Kd was 2.77 nM.

Turning to B19, the dissociation constant Kd is 0.79 nM.

For the next assay, the target named is T1, monomeric human TIGIT (Sino Biological …). Described as above.
Description: as §1
Regarding B14, the Kd turned out to be 58.7 nM.

B15 gave a Kd of 2.18 nM.

In turn, B16 came in with a Kd of 2.32 nM.

In the case of B17, the Kd is 50.8 nM.

In turn, B18 yielded a Kd of 73.6 nM.

The molecule B19 registered an equilibrium dissociation constant (Kd) of 13.8 nM.

For another assay, the target named is T5, cynomolgus monkey TIGIT expressed on cells (cynomolgus monkey).
T5 construct: HEK 293 cells stably expressing cynomolgus monkey TIGIT or cynomolgus T cells; also called Cyno TIGIT HEK
T5 sequence (chain, as listed by the source limits assumed): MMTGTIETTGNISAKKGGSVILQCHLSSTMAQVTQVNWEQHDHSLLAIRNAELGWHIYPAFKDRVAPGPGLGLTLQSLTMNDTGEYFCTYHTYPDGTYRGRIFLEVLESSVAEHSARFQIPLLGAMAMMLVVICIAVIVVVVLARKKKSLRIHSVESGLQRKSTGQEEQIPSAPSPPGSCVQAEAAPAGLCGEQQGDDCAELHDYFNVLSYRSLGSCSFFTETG
Kind of assay: flow cytometry on HEK 293 cells expressing the target, MFI over parental HEK 293. (In general: A flow cytometer gives signals particle by particle.)
Description: (§2) HEK 293 cells were engineered to stably express high levels of human, mouse or cynomolgus monkey TIGIT by lentiviral transduction. […] Cells were then washed twice with wash buffer and incubated with anti-human IgG conjugated to PE for 15 minutes on ice. Cells were then washed twice with wash buffer and analyzed by flow cytometry on a FACS Canto II instrument (BD Biosciences). Fold over background (FOB) was calculated as the median fluorescence intensity (MFI) of the anti-TIGIT clone bound to target-positive cells divided by the MFI of the anti-TIGIT clone bound to target-negative cells.
Turning to B5, the “FOB (Fold Over Background)” value turned out to be 238 fold.

As for B6, the “FOB (Fold Over Background)” value came out at 286 fold.

Consider B7, for which the “FOB (Fold Over Background)” value is 272 fold.

As to B8, the “FOB (Fold Over Background)” value is 252 fold.

As for B9, the “FOB (Fold Over Background)” value is 291 fold.

B10: the “FOB (Fold Over Background)” value worked out at 157 fold.

As to B11, the “FOB (Fold Over Background)” value is 186 fold.

For the molecule B12, the “FOB (Fold Over Background)” value is 241 fold.

Take B13: the “FOB (Fold Over Background)” value is 224 fold.

The next assay has as its target T3, human TIGIT expressed on cells. The assay is described as above.
Description: as §2
In the case of B5, the “FOB (Fold Over Background)” value was found to be 207 fold.

In the case of B6, the “FOB (Fold Over Background)” value was determined as 216 fold.

In the case of B7, the “FOB (Fold Over Background)” value came out at 225 fold.

Turning to B8, the “FOB (Fold Over Background)” value stood at 204 fold.

With B9, the “FOB (Fold Over Background)” value is 222 fold.

For the molecule B10, the “FOB (Fold Over Background)” value was 208 fold.

In the case of B11, the “FOB (Fold Over Background)” value worked out at 195 fold.

Take B12: the “FOB (Fold Over Background)” value came out at 199 fold.

For B13, the “FOB (Fold Over Background)” value came to 193 fold.
